The nature of the data set: label from the status in PepcDB records.

With “MGLTKQYLRYVASAVFGVIGSQKGNIVFVTLRGEKGRYVAVPACEHVFIWDLRKGEKILILQGLKQEVTCLCPSPDGLHLAVGYEDGSIRIFSLLSGEGNVTFNGHKAAITTLKYDQLGGRLASGSKDTDIIVWDVINESGLYRLKGHKDAITQALFLREKNLLVTSGKDTMVKWWDLDTQHCFKTMVGHRTEVWGLVLLSEEKRLITGASDSELRVWDIAYLQEIEDPEEPDPKKIKGSSPGIQDTLEAEDGAFETDEAPEDRILSCRKAGSIMREGRDRVVNLAVDKTGRILACHGTDSVLELFCILSKKEIQKKMDKKMKKARKKAKLHSSKGEEEDPEVNVEMSLQDEIQRVTNIKTSAKIKSFDLIHSPHGELKAVFLLQNNLVELYSLNPSLPTPQPVRTSRITIGGHRSDVRTLSFSSDNIAVLSAAADSIKIWNRSTLQCIRTMTCEYALCSFFVPGDRQVVIGTKTGKLQLYDLASGNLLETIDAHDGALWSMSLSPDQRGFVTGGADKSVKFWDFELVKDENSTQKRLSVKQTRTLQLDEDVLCVSYSPNQKLLAVSLLDCTVKIFYVDTLKFFLSLYGHKLPVICMDISHDGALIATGSADRNVKIWGLDFGDCHKSLFAHDDSVMYLQFVPKSHLFFTAGKDHKIKQWDADKFEHIQTLEGHHQEIWCLAVSPSGDYVVSSSHDKSLRLWERTREPLILEEEREMEREAEYEESVAKEDQPAVPGETQGDSYFTGKKTIETVKAAERIMEAIELYREETAKMKEHKAICKAAGKEVPLPSNPILMAYGSISPSAYVLEIFKGIKSSELEESLLVLPFSYVPDILKLFNEFIQLGSDVELICRCLFFLLRIHFGQITSNQMLVPVIEKLRETTISKVSQVRDVIGFNMAGLDYLKRECEAKSEVMFFADATSHLEEKKRKRKKREKLILTLT”, the protein production result was “failed”.

In the case of “MGNGVQPLDPVAIQIGSISVKWYGVIIASAVVIALLLALSEANKRKMDKEIIVDLLIWAIPISIISARIYYVIFEWDFYKNNLGEIVKIWHGGIAIYGALIGAVLTAIIFSRIKKISFWQLADVVAPSLIIAQAIGRWGNFMNQEAHGAETTRSFLESLHLPDFIINQMYIDGAYYQPTFLYESLWNVLGFVILLIIRRTKIRRGELFLGYVIWYSFGRFFIEGMRTDSLMWGDFRVSQALSLLLIVLSIGIIIYRRLKMNPPYYMEDKFGKVVKKK”, the protein production result was “not failed”.

Consider “MGNLKLALIIKSPRDDVEFLLEKQKQPAKFGDEAYDSFVDSDLWDLPSTDLQALEDGVRSGFSISILDSCSEEVDLMNFDFESTLILLLENLGIDISDVGEWRFVRSVEEPEFGPDSCVRTCFISGKLLNTDQSLQDNCKWMSMESCFDSLIDVKLGSDRVGPLVLLGLGDGSRQSMKHKLSSSLAIQEYPPGVMIVPMHSKTLKPFRTTNLVVFAPENGLGDHQGADFVAHGDALIVDPGCLSKLHVELKKIVDALPRKLIVFVTHHHRDHIDGLSAIQESNPDAILVAHAKTRHRIGGWSGNYTPVSGGENIYVNGQKLTVIFAPGHTDGHMSLLHTSTQSLIVGDHCVGQGSAFLDIRAGGNMTDYFQSTYKFLELSPNVVIPMHGRVNLWPKHMLCGYLKNRRSREKSILKATVDGAQTLYDIVAKVYSSVDRKFWWAASSNVRLHIEKLAVENKLPEGFSIQKFKASCGLRFAIRCTVGYIISKIPFKINKPGFIMSVMAAGAGYFLLYTSKKKNQIES”, for which the protein production entry is listed as “failed”. For “MGNLPALSWGPAGPLARTCGTSYGASDAQDLRRHAKIGSVELTLLGTGAPAGLPRPDCPCAACATALGEAARAATALLVDGTVLLDLTPGAAFAAARAGRSLGGVRQVLLSHPHNGPAVEVPAGLPQPARVPDGRELALLTGHRVRAMPMDAPGTGYAVTGPDGQRLLYLPPGGAPAGLDETVQPYDMVAADVVGRPDALARLRAVGALGPTTDVIAVHLDHDVPPGVELRRRLAAAGARAVPDGTTLTVGVYEDVPDVPRRTLVLGGARSGKSVEAERRLESFPDVLYVATGGSRGGDTEWAERVSVHRERRPGSWRTVETCDLVPLLKEDGPPLLIDCLSLWLTDAMDSVNAWDDDEWAGGGERALRGRVEELTAAVRETGRTVVAVSNEVGSGIVPATASGRRYRDELGRLNAAFAAECEHLLLVVAGQAMVLRGG”, the protein production entry was “failed”. The same measure for “MGNLPPHYGGSVNLLIAALGVLGVASSGPLIAGTLGATSVTALAIAFWRNAIGAVVMAGPVVIREPKAFGRITRREFGWSAVAAVALAFHFACFITALQLTSVAAATALVCLQSGWIAVFQLFRGTRHRWPVLVGLGIAFGGVVAITGFDMGSSPEALLGDLLALAGGALAGLYTLAGGKARQSMGTGTYTTLCYGMCAAIVAVMALFSGQPLAGFDAGGWLGIIAITVCAQLVGHTAFNHLLATMSPLLVSMIILLEIPGAAILAAIFLNETLPAGTYAGLALILVGLAVVVSGQRRGRPVADRREAELGAD”: “failed”; for “MGNLSLGELELTVLYDEERYDIVEQTETVQVDLEGPRGVLTVFRFARPSYEVFVDLTEAGEGSHTVDVEHRGFPGDLAVTVEPRLEHHHHHH”: “failed”; for “MGNQFSINRNRPANAGEAHASSTEAKPAPDAASPSRQVRVATAPSILEGLRKLRLPFNFGARVPPLPEETWAEIARRVDTKTLHRMRAVSKTLKAAADTEIRQLTVNTVEALQAAKRYACLETLKMDGYFGDADLEGLPASLRELDLFSTRYVSAKGLAHLSKLPLVRLKVRANGIHAEAARALAASTTLTALDIRGNGIGDAGAQALAANTSITSLDASFNDIGVAGARALAANTTLTSLDLGFNAIGDEGLQALATNTSLTSLTVGSCEIGDAGAAALANNTALTSVDLTCNHIGEEGAEGLAANTVLTSLDLTRNSISDRGAAALAGNTTLTSLCVNFNDIYGRGARWLAENTTLTTLDISYNPIGDWGALGLADNMTLRSLSVVAGRIGVEGARALAGNTTLTTLDISVNAIGNEGAQALAANATLTTLSLRSCELRAAAAEAFKANTTLASLDIGENRIEAAGAQALADNTALTTLRVTGNQIGMAGAQALAANRSLTKLNISQNDIRSAGAQALAANTSLTSLDVSSASIGAAGAQALAANTSITWLNINDNHIGDAGAQALAAHPALTSLYACDNFIGTAGVQALAANTRLTSLSIWGNRIGDAGVKALAANTTLTKLTIGKRVDKQLGEQIGDLAWQELMASVDRSGMTFHSL”: “failed”. The same measure for “MGNTDKLMNQIFDLKFTSKSLQRQSRKCEKEEKAEKLKVKKAIEKGNMDGARIYAENAIRKRSEQMNYLRLASRLDAVVARLDTQAKMTTITKSMTNIVKSLESSLATGNLQKMSETMDSFEKQFVNMEVQAEFMENAMAGSTSLSTPEGEVNSLMQQVADDYGLEVSVGLPQPAGHAIPTKTEEKVDEDDLSRRLAELKARG”: “failed”; for “MGNYMTYIVGLTGGIGSGKTTIANLFTDLGVPLVDADVVAREVVAKDSPLLSKIVEHFGAQILTEQGELNRAALRERVFNHDEDKLWLNNLLHPAIRERMKQKLAEQTAPYTLFVVPLLIENKLTALCDRILVVDVSPQTQLARSAQRDNNNFEQIQRIMNSQVSQQERLKWADDVINNDAELAQNLPHLQQKVLELHQFYLQQAENKNA”: “not failed”; for “MGPTLGPAPLRGKSIPMNRTGRALTLGCLLLLQPLLAHAQAGGNSLLIPALGRCTLDPQAQDQAEALTACQKAADEGDAEAQYELGEFYYEGKGAPQDFNQALSYFEKASLQGHAQAQFKLGTMFFHGEGVPANNVQAYIVLKMAAVNGAEDALDTADEVAEHMQRDELEVATQVLGQIFRKYLMELQSADGRSPFSPLP”: “failed”. In the case of “MGQAFAALSVWQVMGYGLVFFGGIYLLFGAATWLLTRRVLPALGVGRPLDPRPLGPGQWRREFLQSGLSVLIFGLGMVFPWGLVQLGWARLDDDAGPWRIVAEILVLVIWNDVHFWINHRLLHTRLLRRFHLPHHRSVVTTPFSTYSFHPIEALMLGNVILLPMVVHDFSFWSLLSVPLFSLFFNCVGHANYDFFPGVSYAHWFAASRRHHLHHACYQGNFGFQFTFMDRLFGTRLGADAAQGQLAAYRKRGAVGSAR” it was “failed”. As for “MGQALGCIQVDQSNVAIKETFGKFDEVLEPGCHCLPWCLGSQVAGHLSLRVQQLDVRCETKTKDNVFVTVVASIQYRALAESAQDAFYKLSNTRNQIQAYVFDVIRASVPKLDLDSTFEQKNDIAKTVETELEKAMSHYGYEIVQTLIVDIEPDVHVKRAMNEINAASRMREAASEKAEAEKILQIKRAEGEAESKYLSGMGIARQRQAIVDGLRNSVLAFSESVPGTSSKDVMDMVLVTQYFDTLKEIGASSKSNSVFIPHGPGAVRDIASQIRDGLLQGNSAAE”, the protein production result is on record as “failed”. In the case of “MGQIGVEITGVITDISEIKTFKRRDGSLGKYKRITIADKSGTIRMTLWDDLAELDVKVGDVIKIERARARKWRNNLELSSTSETKIKKLENYEGELPLEHHHHHH” it was “not failed”.

These data come from a protein production outcome set (Wang et al. 2014).
